In patent publication US20210009686A1 (BEIJING XUANYI PHARMASCIENCES, published 2021):

What was measured:
claudin 18.2 (CLDN18.2) [1] = molecular target: T1, claudin 18.2 (CLDN18.2) (human); experiment: FACS, HEK293-CLDN18.2 cells
T1 construct: also called Claudin 18 isotype 2; HEK293-CLDN18.2
Experimental: The interaction of 20 purified chimeric antibodies with CLDN18.2 was assessed by in-cell ELISAs and FACS using HEK293-CLDN18.2 cells. […] The FACS assays were performed as follows: Serial dilutions for each antibody clone shown in Tables 7 and 8 were prepared and stained with HEK293-CLDN18.2 cells on ice for 30 min, with final antibody concentrations of 10 g/ml, 3 g/ml, 1 g/ml, 0.3 μg/ml, 0.1 μg/ml, 0.03 μg/ml, 0.01 μg/ml, and 0 μg/ml. […] Cells were washed, and analyzed by FACS.

claudin 18.1 (CLDN18.1) = molecular target: T2, claudin 18.1 (CLDN18.1) (human, UniProt P56856 1-261); experiment: in-cell ELISA, HEK293-CLDN18.1 cells
T2 construct: also called HEK293-CLDN18.1
Experimental: (§1) In-cell ELISAs were performed as follows: 5×10³ HEK293-CLDN18.2 cells were seeded per well in a poly-L-lysine-coated 96-well plate. The plates were then incubated at 37° C. with 5% CO₂ for 2 days. Following incubation, culture media was removed from each well, and the HEK293-CLDN18.2 cells were blocked with 200 μl blocking buffer (3% BSA/PBS (pH 7.4)) per well for 1 hour at room temperature. Each hybridoma supernatant was incubated with cells at room temperature for 1 hour. Cells were gently washed 3 times with 200 μl PBS (pH 7.4) containing 1 mM Ca²⁺ and 0.5 mM Mg²⁺. Next, cells were incubated with 100 μl of HRP-conjugated goat anti-human IgG (H+L) antibody for 1 hour at room temperature. Following the incubation, the cells were washed three times with 200 μl PBS (pH 7.4) containing 1 mM Ca²⁺ and 0.5 mM Mg²⁺. 100 μl of 1-Step™ Ultra TMB-ELISA Substrate was added to each well, and the reactions were stopped by addition of 50 μl of stop solution. OD₄₅₀ was measured using CLARIOStar microplate reader. The in-cell ELISAs were repeated for each clone using HEK293-CLDN18.1 cells.

claudin 18.2 (CLDN18.2) [2] = molecular target: T1, claudin 18.2 (CLDN18.2); experiment: in-cell ELISA, HEK293-CLDN18.2 cells
Experimental: as §1
The in-cell ELISAs were performed as described above. […] Cells were washed, and analyzed by FACS.

T2 sequence (P56856 whole entry): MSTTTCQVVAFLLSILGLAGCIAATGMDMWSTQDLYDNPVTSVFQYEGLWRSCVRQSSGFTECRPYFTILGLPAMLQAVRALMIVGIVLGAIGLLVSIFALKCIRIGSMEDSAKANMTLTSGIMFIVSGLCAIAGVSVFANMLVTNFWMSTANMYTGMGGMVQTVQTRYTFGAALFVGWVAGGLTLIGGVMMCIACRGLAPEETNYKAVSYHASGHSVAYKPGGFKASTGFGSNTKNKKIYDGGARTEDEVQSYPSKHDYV

| Binder | EC50 (claudin 18.2 (CLDN18.2) [1]) [µg/mL] | binding result (claudin 18.1 (CLDN18.1)) | EC50 (claudin 18.2 (CLDN18.2) [2]) [µg/mL] |
| --- | --- | --- | --- |
| chimeric Ab 10-J10-B (antibody, V domains shown, also called 10-110-B; 10-10-B) VH: QVQLQQSGAELARPGASVKLSCKASGYTFTSWSISWVKQRTGQGLEWIGEIYPRSDNIHYNEKFKGKATLTADKSSSTVYMQLSSLTSEDSAVYFCARAYYGNSFAYWGQGTLVTVSA VL: DIVMTQSPSSLTVTAGEKVTMTCKSSQILLNSGNQKNYLTWYQQKPGQPPKLLIYWASTRESGVPDRFTGSGSGTDFSLTISSVQAEDLAIYYCQNDYYYPFTFGSGTKLEIK | 0.141 | no binding (tested: 1 µg/ml) | 0.062 |
| chimeric Ab 6-C5-A (antibody, V domains shown) VH: EVQLVESGGGLVKPGGSRKLSCAASGFTFSDYGMHWVRQAPEKGLEWVAYISSGSSTIYYADTMKGRFTISRDNAKNTLFLQMTSLRSEDTAMYYCTRFARGNTMDYWGQGTSVTVSS VL: DIVMTQSPSSLTVTAGEKVTMSCKSSQSLLNSGNQRNYLTWYQRKPGQPPKLLIYWASTRESGVPDRFTGSGSGTDFTLTISSVQAEDLTFYYCQNGYSYPLTFGAGTKLELK | 0.044 | no binding (tested: 1 µg/ml) | 0.058 |
| chimeric Ab 6-M11-A (antibody, V domains shown) VH: EVQLVESGGGSVKPGGSRKLSCAASGFTFSDYGMHWVRQAPEKGLEWVAYISSGSNTFYYTDTVKGRFTISRDNAKNTLFLQMTGLRSEDTAMYYCARFTRGNALDYWGQGTSVTVSS VL: DIVMTQSPSSLTVTAGEKVTMSCKSSQSLLNSGNQKNYLTWYQQKPGQPPKLLLYWASTRESGVPDRFTGSGSGTDFTLTISSVQAEDLTVYYCQNAYSYPLTFGAGTKLELK | 0.026 |  | 0.098 |
| chimeric Ab 1-H16-A (antibody, V domains shown) VH: EVQLVESGGGLVKPGGSRKLSCAASGFTFSDYGMYWVRQAPEKGLEWVAFISSGSSTIYCADTVKGRFTISRDNAKNTLFLQMTSLRSEDTAMYYCARIARGNAMDYWGQGTSVTVSS VL: DIVMTQSPSSLTVTAGERVTMSCKSSQSLLNSGNLKNYLTWYQQKPGQPPKLLIYWASTRESGVPDRFTGSGSGTDFTLTISTVQAEDLAVYYCQNDYFYPLTFGAGTKLELK | 0.101 |  | 0.08 |
| chimeric Ab 9-M7-A (antibody, V domains shown) VH: EVQLVESGGALVKPGGSLKLSCAASGFTFSNYAMSWIRQTPEKRLEWVATIIIGGTYTYYPDSVKGRFTISRDNAKNTLYLQMSSLRSEDTALYYCARQVYGNSFAYWGQGTLVTVSA VL: DIVMTQSPSSLTVTAGEKVTMSCKSSQSLLNSGNQKNYLTWYQQKPGQPPKLLIYWASTRESGVPDRFTGSGSGTDFTLTISSVQAEDLAVYYCQNNYIYPFTFGSGTKLEIK | 0.095 | no binding (tested: 1 µg/ml) | 0.154 |
| chimeric Ab 7-G17-A (antibody, V domains shown) VH: EVQLVESGGGLVKPGGSRKLSCAVSGFTFSDYGMYWVRQAPEKGLEWVAYISSGSSTIYYADTVKGRFTMSRDNAKNTLFLQMTSLRSEDTAMYYCARIARGNAMDYWGQGTSVTVSS VL: DIVMTQSPSSLTVTPGEKVTMSCKSSQSLFNSGNQRNYLAWYQQKPGQPPKLLIYWASTRESGVPDRFTGSGSGTDFTLTISSVQAEDLAVYYCQNDYFYPLTFGAGTKLELK | 0.033 |  | 0.098 |
| chimeric Ab 9-A13-B (antibody, V domains shown) VH: EVQLVESGGGLVKPGGSRKLSCAASGFSFSDYGMHWVRQAPEKGLEWVAHISSGSSTIYYADTMKGRFTISRDNAKNTLFLQMTSLRSEDTAMYYCARFARGNTMDYWGQGTSVTVSS VL: DIVMTQSPSSLTVTAGEKVTMSCKSSQSLLNSGNQKNYLTWYQQKPGQPPKLLIYWASTRESGVPDRFTGSGSGTDFTLTISSVQAEDLTVYYCQNGYSYPLTFGAGTKLELK | 0.068 |  | 0.15 |
| chimeric Ab 9-N14-A (antibody, V domains shown) VH: EVQLVESGGGLVKPGGSRKLSCAASGFTFSDYGMYWVRQAPEKGLEWLAYISSGSNNIYYADTVKGRFTISRDNAKNTLFLQMTSLRSEDTAMYYCARIARGNAMDYWGQGTSVIVSS VL: DIVMTQSPSSLTVTAGEKVTMSCKSSQSLLNSGNQKNYLTWYQQKPGQPPKLLIYWASTRESGVPDRFTGSGSGTDFTLTISSVQAEDLAVYYCQNDYIYPLTFGAGTKLGLK | 0.075 | no binding (tested: 1 µg/ml) | 0.218 |
| chimeric Ab 2-D22-A (antibody, V domains shown) VH: EVQLVESGGGLVKPGGSRKLSCAASGFTFSDYGMHWVRQAPEKGLEWIAYISSGSSSIYYADTVKGRFTMSRDNAKKTLFLQTTSLRSEDTAMYYCARIARGNAMDYWGQGTSVTVTS VL: DIVMTQSPSSLTVTAGEKVTMSCKSSQSLLNSGNQRNYLAWYQQKPGQPPKLLIYWASTRESGVPDRFTGSGSGTDFTLTISSVQAEDLAVYYCQNDYSYPLTFGAGTKLELK | 0.051 |  | 0.065 |
| chimeric Ab 1-M5-A (antibody, V domains shown) VH: EVQLVESGGALVKSGGSLRLSCAASGFTFSNNAMSWIRQTPEKRLEWVATIIIGGTYTYYPDSVKGRFTISRDNAKNTLYLQMSSLRSEDTAFYYCARQVYGNSFAYWGQGTLVSVSA VL: DIVMTQSPSSLTVTAGEKVTMSCKSSQSLLNSGNQKNYLTWYQQKPGQPPKLLIYWASTRESGVPDRFTGSGSGTDFTLTISSVQAEDLAVYYCQNNYFYPFTFGSGTKLEIK | 0.044 | no binding (tested: 1 µg/ml) | 0.042 |
| chimeric Ab 9-B11-A (antibody, V domains shown) VH: EVQLVESGGGLVKPGGSRKLSCAASGFTFSDYGMHWVRQAPEKGLEWVAYISSGSSPIYYADTVKGRFTISRDNAKNTLFLQMTSLRSEDTAMYYCARFARGNAMDYWGQGTSVTVSS VL: DIVMTQSPSSLTVTAGEKVTMSCKSSQSLLNSGNQKNYLTWYQQKPGQPPKLLIYWASTRDSGVPDRFTGSGSGTDFTLTISSVQAEDLAVYYCQNNYYYPLTFGAGTNLELK | 0.045 | no binding (tested: 1 µg/ml) | 0.069 |
| chimeric Ab 10-P12-A (antibody, V domains shown) VH: EIQLQQSGAELVKPGTSVKISCKASGYSFTGYNMNWVKQSHGKSLEWIGNINPYYSNTNYNQRFKGKATLTVDKSSSTAYMQLNSLTSEDSAVYYCARHVRGNSFDYWGQGTTLTVSS VL: DIVMTQSPSSLTVTAGERVTVGCKSRQSLFNSENQKNYLSWYQQKPGQPPKLLLYWTSTRESGVPERFTGSGSGTDFTLTISSVQAEDLAVYYCQNNYIYPFTFGSGTKLEIK | 0.018 |  | 0.106 |
